Data as given in the supplement of paper PMC11136658.

Test system: peptide library, one residue held at a place counted from the Y acceptor
Experiment: relative phosphorylation of the sub-library (ratio to the mean residue at this position); higher = residue favoured
How it was run: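 Every value reflects phosphorylation relative to the mean randomized residue. The sum of the 18 randomized residues, or 16 in the Ser/Thr-free library, served to normalize intensities at each position, which were then multiplied by that number. Intensities came from phosphorimaging with ImageQuant of biotinylated Tyr-centred peptides captured on streptavidin membranes after 90 min with purified recombinant kinases and 50 μM ATP plus γ-32P-ATP.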

Sequence of TXK, construct: aa239-end, human (P42681 239-527, looked up): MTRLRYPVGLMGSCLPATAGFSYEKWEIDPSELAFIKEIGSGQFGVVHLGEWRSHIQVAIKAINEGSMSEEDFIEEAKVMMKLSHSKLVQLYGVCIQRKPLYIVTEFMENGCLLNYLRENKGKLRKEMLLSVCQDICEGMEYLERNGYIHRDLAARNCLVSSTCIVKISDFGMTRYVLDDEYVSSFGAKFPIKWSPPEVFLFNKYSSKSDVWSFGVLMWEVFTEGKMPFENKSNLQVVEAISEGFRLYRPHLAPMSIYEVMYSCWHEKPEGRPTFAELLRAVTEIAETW

TXK, construct: aa239-end, human (from UniProt P42681)
relative phosphorylation
Details	at +1	at +2	at +3	at +4	at +5	at -1	at -2	at -3	at -4	at -5
A fixed	1.58	1.14	0.87	0.836	0.784	0.51	1.03	0.998	1.03	1.07
D fixed	2.77	1.02	0.409	0.931	0.726	0.678	2.01	1.85	1.81	1.32
E fixed	2.53	1.15	0.345	0.797	0.692	0.83	1.99	2.25	1.53	1.32
F fixed	0.463	1.14	1.52	1.03	1.26	1	0.539	0.887	0.727	0.858
G fixed	1.28	0.725	0.939	1.18	1.14	0.379	1.35	1.13	1.34	1.27
H fixed	0.614	1.08	1.38	1.07	1.1	0.774	0.798	0.997	0.89	1.04
I fixed	0.981	0.782	0.907	0.835	0.76	3.78	0.515	0.553	0.641	0.782
K fixed	0.175	0.848	0.625	0.986	1.05	0.34	0.693	0.63	0.905	1.04
L fixed	0.444	0.723	1.12	0.881	0.901	2.45	0.627	0.534	0.571	0.722
M fixed	0.788	0.788	1.24	0.968	0.88	1.4	0.602	0.598	0.76	0.723
N fixed	0.539	1.3	1.24	1.05	1.1	0.638	1.24	1.25	1.17	1.06
P fixed	0.254	0.933	0.908	1.63	1.23	0.531	1.74	1.16	1.24	1.25
Q fixed	0.98	1.16	0.937	0.94	1.08	0.514	1.19	1.19	1.19	1.16
R fixed	0.207	1.14	1.01	1.13	1.21	0.27	0.605	0.64	0.858	0.944
S fixed	1.22	1.41	1.07	0.968	0.896	0.575	1.06	0.995	0.895	0.898
T fixed	1.39	1.64	0.808	1.09	1	0.948	0.87	0.928	0.908	0.807
V fixed	1.57	1.01	0.9	0.834	0.783	1.45	0.624	0.571	0.728	0.771
W fixed	0.829	1.06	1.64	0.899	1.3	0.461	0.443	0.77	0.607	0.668
pThr fixed	3.94	2.21	0.407	0.62	0.444	1.85	1.4	1.35	1.14	0.994
pTyr fixed	1.25	1.67	0.517	0.595	0.619	1.72	1.2	1.23	0.945	0.998
